Test results reported in the nanobody polyreactivity screen of Harvey et al. (2022).

Experiment: yeast display, Sf9 membrane polyspecificity reagent, FACS + sequencing; frameworks hold sequencing errors
Summary of the method: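 In a synthetic yeast display library (Saccharomyces cerevisiae BJ5465), nanobody expression was induced with galactose for 36–48 hours. FACS gates were set low and high (top ~1%) using anti-HA fluorescence for expression and streptavidin fluorescence for binding of the Sf9 membrane reagent. Each polyreactivity label is drawn from the gate of origin.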

| Sequence | polyreactivity (PSR sort gate) |
| --- | --- |
| QVQLVESGGGLVQAGGSLPLSCAASGNIFVTYDMGWYRQAPGKERELVASISWNGGSTNYADSVRGLFTISRDNAKNTVYLQMNSLKPEDTAVYYCAAEYWTSYADYRYDYWGQGTQVTVSS | low polyreactivity |
| QVQLVESGGGLVQAGGSLRLSCAASGRTFGRNAMGWYRQAPGKERELVAAISSDGGRTYYADSVKGRFTISRDNAKNTVYLQMNSLKPEDTAVYYCAKQRSYSDGGYWGQGTQVTVSS | low polyreactivity |
| QVQLVESGGGLVQAGGSLRLSCAASGITFGRKTMGWYRQAPGKERELVAAIDSGGNTYADSVKGRFTISRDNAKNTVYLQMNSLKPEDTAVYYCAVDGGVFSSYGYWGQGTLVTVSS | low polyreactivity |
| QVQLVESGGGLVQAGGSLRLSCAASGSILWEYAMGWYRQAHGKERELVATISSGGCSTNYADSVKGRFTISRDNAKHNFYLPMKSLKPEDTAVYYCNALTSYLVTYEFDSWGIGTQVTVSS | low polyreactivity |
| QVQLVESGGGLVQAGGSLRLSCAASGRIFTSYAMGWYRQAPGKERELVAAITSGGRTYYADSVKGRFTISRDNAKNTVYLQKNSLKAEDTAVYYCNAPRYLRYNYCGQGTQVTVSS | high polyreactivity |
| QVQLVESGGGLVQAGGSLRLSCAASGRIFVYYTMGWYRQAPGKERELVAAITGSGGSTYYADSVKGRFTISRDNAKNTVYLQMNSLKPEDTAVYYCAAQLGWWGSGYWGQGTQVTVSS | high polyreactivity |
| QVQLVESGGGLVQAGGSLRLSFAASGSIFGFNAMGWYRPAPGKERELVAAISSGGITNYADSVKGRFTISRDNAKNTVYLQMNSLKAEDTAVYYCAARAVSEDYYEFDYWGQGTQVTVSS | low polyreactivity |
| QVQLVESGGGLVQAGGSLRLSCAASGSIFFLYAMGWYRQAPGKERELVAAISRDGRTNYADSVKGRFTISRDNAKYTVYLQMKSLKPEDTAVYYGAKDGNHPGAVGYGYWGQGTQVTVSS | low polyreactivity |
| QVQLVESGGGLVQAGGSLRLSCAASGYTFTINAMGWYRQAPGKERELVAAISWNGGRTYYADSVKGRFTISRDNAKNTDYVQMNSLQPEDTAVCYCNADTYSAGDYWGQGTQVTVSS | high polyreactivity |
| QVQLVESGGGLVQAGGSLRLSCAASGIILDEYAMGWYRQAPGKERELVAAITWIGGSTYADSVKGRFTISRDNAKNTVYLQMNSLKPEDTAVYYCAADYPSLYVWYGYGWYKYDYWGQGTQVTVSS | low polyreactivity |
| QVQLVESGGGLVQAGGSLRLSCAASGFTFTLNAMGWYRQAPGKASEFVAAISTGGSTYYADSVKGRFTISRHNAKNTVYLQMNSRKPEDTAVYYCAAYRYSYHGSYQETYYYWGQGTQVTVSS | high polyreactivity |
| QVQLVESGGGLVQAGGSLRLSCAASGSIFPFYAMGWYRQAPGKERELVAAISSRGGSTYYADSVKGRFTISRDNAKNTVYLQMNSLKPEDTAVYYCAARDYSIKVRLGYWGQGTQVTVSS | low polyreactivity |
| QVQLVESGGGLVQAGGSLRLSCAASGRTYKYYALGWYRQARGKERELVAAITSGASTNYADSVKGRFTISRDNAKNTVYLQMNSLKPEDTAVYYCAARKAYFFDRYGYWGLGTQVTVSS | high polyreactivity |
| QVQLVESGGGIVQAGGSLRLSCAASVFTFRANTMGWYRPAPGKERELVAAISPSGGSTYYADSVKGRFTISRDNAKNTVYLQMNSLKPEDTAVYYCNADIEYRPGHGRLGDYDYWGQGTQVTVSS | low polyreactivity |
| QVQLVESGGGLVQAGGSLRLSCAASGRIFISNAMGWYRQAPGKERELVAAITWIGDRTYYADSVKGRFTISRDNAKNTVYLQMNSLKPEDTAVYYCNRVTSRVSGRYSYDYWGQGTQVTVSS | high polyreactivity |
| QVQLVESGGGIVQAGGSLRLSCAASGRIFGGNSMGWYRQAPGKERELVAAITTSGGSTYYADSVKGRFTISRDNAKNTVYLQMNSLKPEDTAVYSCAAGIGDSYWYRRYGYWGQGTQVTVSS | low polyreactivity |
| QVQLVESGGGLVQAGGSLRLSCAASGRIFNPYAMGWYRKAPGKERELVAAISRGGRTYYADSVKGRFTISRDNAKNTVYLQMNSLKPEDTAVYYCAKLPSRRWAYDYWGQGTQVTVSS | high polyreactivity |
| QVQLVESGGGLVQAGGSLRLSCAASGRTFEDYTMGWYRQAPGKERELVAAITGGGSTNYADSVKGRFTISRDNAKNTVYLQMNSLKPEDTAVYYCAARRKGGHISYGYDYWGQGTQVTVSS | high polyreactivity |
| QVQLVESRGGLDQAGGSLRLSCAASGSIFGFYAMGWYRQAPGKERELVAAISSDGGSTYYADSVKGRFTISRDNAKNTVYLQMNSLKPEDTAVYYCAAAHGSIFDSTYYEYYYWGQGTQVTVSS | low polyreactivity |
| QVQLVESGGGLVQAGGSLRLSCAASGGILRGYAMGWYRQAPGKERELVAAISRGGRTNYADSVKGRFTISRDNAKNTVYLQMNSLKPEDTAVYYCTALSAFQVDNYDYWGQGTQVTVSS | high polyreactivity |
| QVQLEESGGGLVQAGGSLRLSCAASGFTFYLYAMGWYRQAPGKERELVASISSGGRTYYADSVKGRFTISRDNAKNTVYLQMNSLKPEDTAVYYCAVSPYSRRKYEYYYWGQGTQVTVSS | high polyreactivity |
| QVQLVESGGVLVQAGGSLRLSCAASGITLTANAMGWYRQAPGKERELVAAISRGGSKYYADSVKGRFTISRDNAKNPGYLQMNSLKPEDTAVYYCNKAGGYWYAKRDYDYWGQVTQVTVSS | high polyreactivity |

| Sequence | polyreactivity (PSR sort gate) |
| --- | --- |
| QVQLVESGVGLVQAGGSLSLSCAASGRIFPVYAMGWYRQAPGKERELVATISYSGSSTYYADSVKGRFTISRDNAKNNVYLLMNSLKPEDTAVYYCNADAFGPQCVQYYYWGQVTQVTVSS | low polyreactivity |
| QVQLVESVGGLVQAGGSLRLSCAASGSTFRYNAMGWYRQAPGKERELVATISSDGITYYADSVNGRFTISRDNAKNTVYLQMNRLKPEDTAVYYCAASYAGGFDYWGQGTQVTVSS | high polyreactivity |
| QVQLVESGGGLVQAGGSLRLSCAASGFTFYTNAMGWYRQAPGKERELVAGINSGSSTYYADSVKGRFTISRDNAKNTVYLQMNSLKPEDTAVYYCAARARRRYYYWGQGTQVTVSS | high polyreactivity |
| QVQLVESGGGLVQAGGSLRLSCATSGFTFGWNYMGWYRQAPGKERELVAAITWSGGSTYYADSVKGRFTISRDNAKNTVYLQMNSLKPEDTAVYYCAAVVSDYVWRYEYWGQGSQVTVSS | low polyreactivity |
| QDQLVESGGGLVQAGGSLRLSCADSGSNFKYNAMGWYRPAPGKERELVAAISTRGSTTNYADSVKGRFTISRDNAKNTVYLQMNSLKPEDTAVYDCNKYANRRDRTRGADYDYWGQGTQVTVSS | high polyreactivity |
| QVQLVESGGGLVQAGGSLRLSCAASGRTFYYNAMGWYRQAPGKERELVAAISGRGGSTYYADSVKGRFTISRDNAKNTVYLQMNSLKPEDTAVYYCNAVRYKYTGRFGYWGQGTQVTVSS | high polyreactivity |
| QVQLVESGGGLVQAGGSLRLSCAASGSTLWGYVMGWYRQAPGKERELVAVISKSGGSTYYADSVKGRFTISRDNANNTVYLQMNSLKPEDTAVYYCATRWPYRSDWGQGTQVTVSS | high polyreactivity |
| QVQLVESGGGLVQAGGSLRLSCAASGSTFWDYAMGWYRQAPGKERELVAAINSGDSTNYADSVKGRFTISRDNAKNTVYFQMNSLKPEDTAVYYCNVDWYDKGYGGYDYWGQGTQVTVSS | low polyreactivity |
| QVQLVESGGGLVQAGGSLRLSCAASGVTFQFYARGWYREAPGKERELVAAISRRGGRTDYADSVTGRFTISRDNAKNTAYLQMNSLKPEDTAVYYCARDPGAFEYWGQGTQVTVSS | high polyreactivity |
| QVQLVESGGGLVQAGGSLRLSCAASGRIIQYNAMGWYRQAPGKERELVAAISWRSRRTYYADSVKGRFTISRDNAKNTVYIQMNSLKPEDTAVYYCAATSRTSWYGYWGQGTQVTVSS | high polyreactivity |
| QVQLVESGGGLVQAGGSLRLSCAASGRIFAHYTMGWYRQAPGKERELVAAISIRGGRTNYTDSVKGRFTISRDNAKNTVYLQMNSLKPEDTAVYYCNARGARYYWYQLGHDYWGQGTQVTVSS | high polyreactivity |
| QVQLVESGGVLVQAGGSLRLSCAASGGIFQGNVMGWYRQAPGKERELVASIRRGGSTNYADSVKGPFTISRDNAKNTVYLQMNSLKPEDTAVYYCNAAFYKEYYYWGQGTQVTVSS | low polyreactivity |
| QVQLVESGGGLVQAGGSLRLSCAASGRTFYNYAMGWYRQAPGKERELVATINWSGGRTYYADSVKGRFTISRDNAKNTVYLQMNSLKAEDTAVYYCAKTWLYQSNEYGYWGQGTQVTVSS | low polyreactivity |
| QVQLVESGGGLVQAGGSLRLSCAASGRTFQKNTMGWYRQAPGKERELVAAIDYSATTTYYADSVKGRFTSSRDNAKNTVYLQMNSLKPEDTAVYYCAARWSYPRWEFDYWGQGTQVTVSS | high polyreactivity |
| QVQLVESGGGLVQAGGSLRLSCAASGSIFTFYAMGWYRQAPGKERELVATITISTGSTYYADSVKGRFTISRDNAKNTVYFQMNSLKPEDTAVYYCNAYISRRGKRGYNYWGQGTQVTVSS | high polyreactivity |
| QVQLVESGGGLVQAGGSLRLSCAASGSTFPWYAMVWYRQAPGKERELVAAIRWRGGSTYYADSVKGRFTISRDNAKNTVYLQMNSLKPEDTAVYYCAADPTYLRTLRFGSYDYWGQGTQVTVSS | high polyreactivity |
| QDQLVESGGGLVQAGGSLRLSCAASGRTFVSNGMGWYRQAPGKERELLADINDGDDTYYADSVKGRFTISRDNAKNTVYLQMNSLKPEDTAVYYCAADPYWFFPHYDSWGQGTQVTVSS | low polyreactivity |
| QVQLVESGGGLVQAGGSLRLSCASSGRIFSGNAMAWYRQAPGKEMEFVASISRSGGRTRYADSVKGRFTISRDNAKNTVYLQMNSLKPEDTAVYYCAADRSRRGHLTHGYWGQGTQVTVSS | high polyreactivity |
| QVQLVESGGGLVQAGGSLRLSCAASGITFNLNDMGWYRQAPGKERELVAAITSGGNTSYADSVKGRFTISRDNAKNTVYLQMNSLKPEDTAVYYCAADLHTELYKMDYWGQGTQVTVSS | low polyreactivity |
| QVQLQDSGGGLVQAGGSLRLSCAASGYIFGSGSMGWFRQAPGKERELVATINNGSSTYYADSVKGRFTISRDNAKNTVYLQMNSLKPEDTAVYYCGVFLYRLTFFYYWGQGNQVTVSS | high polyreactivity |
| QVQLVESGGGLVQAGGSLRLSCAASGSILTYNAMGWYRQAPGKERELVAAITSSGNTNYADSVKGRFTISRDNAKNTVYLQMNSLKPEDTAVYYCARDLREWGQGTQVTVSS | low polyreactivity |
